According to patent US10434147B2, “Treatment type 2 diabetes mellitus patients” (Sanofi-Aventis Deutschland GmbH, priority 2015, dated 2019):

Tested on: Patients with Type 2 Diabetes Insufficiently Controlled with Insulin Glargine with or without Metformin
Test: Treatment-emergent adverse events, 26-week study
Format: in vivo, human
From the text: FIG. 6—Graphical study design. ^1 Insulin glargine should be injected subcutaneously once daily at dinner or breakfast time (according to patient's/investigators' preference). […] Meal used for insulin glulisine dosing should remain the same throughout the 26-week treatment period. ^4 Injection of insulin glulisine prior to breakfast, lunch and dinner.
Co-primary endpoints at 26 weeks were (1) non-inferiority (95% CI upper bound <0.4%) in HbA1c reduction with LIXI vs GLU-1 and (2) for LIXI vs GLU-3, either non-inferiority in HbA1c reduction (2a) OR superiority (one-sided α≤0.025) in body weight change (2b). FPG, PPG, IG dose, composite outcomes, AEs, and hypoglycemia were assessed.

[1] = Safety population, PT ≥ 3% table

Substance: Insulin Glulisine TID: insulin glulisine three times daily, added to insulin glargine ± metformin (comparator arm)
- Patients with any TEAE leading to death (Safety population): 2 (0.7%) n (%)
- Patients with treatment emergent SAE: Accidental overdose (Safety population): 1 (0.3%) n (%)
- Patients with TEAE: Accidental overdose [1]: 20 (6.8%) n (%)
- Patients with TEAE: Headache [1]: 12 (4.1%) n (%)
- Patients with TEAE: Hypoglycaemia [1]: 154 (52.4%) n (%)
- Patients with TEAE: Infections and infestations (SOC) [1]: 81 (27.6%) n (%)
- Patients with TEAE: Influenza [1]: 14 (4.8%) n (%)
- Patients with TEAE: Injury, poisoning and procedural complications (SOC) [1]: 28 (9.5%) n (%)
- Patients with TEAE: Investigations (SOC) [1]: 92 (31.3%) n (%)
- Patients with TEAE: Metabolism and nutrition disorders (SOC) [1]: 157 (53.4%) n (%)
- Adjudicated by PSAC: Acute on chronic pancreatitis (in vivo): 0 n (%)
- Adjudicated by PSAC: Acute pancreatitis (in vivo): 0 n (%)
- Adjudicated by PSAC: Chronic pancreatitis (in vivo): 0 n (%)
- Adjudicated by PSAC: Unknown pancreatitis (in vivo): 0 n (%)
- Gastrointestinal AEs: Diarrhea (in vivo): 4 (1) n (%)
- Gastrointestinal AEs: Nausea (in vivo): 3 (1) n (%)
- Gastrointestinal AEs: Vomiting (in vivo): 6 (2) n (%)
- Patients with TEAE on the specific adverse event form for increased calcitonin (>=20 ng/L): Any (in vivo): 1 (0.3%) n (%)
- Patients with TEAE on the specific adverse event form for increased calcitonin (>=20 ng/L): Blood calcitonin increased (in vivo): 1 (0.3%) n (%)
- Patients with TEAE: Any class (in vivo): 236 (80.3%) n (%)
- Patients with TEAE: Blood glucose decreased (in vivo): 82 (27.9%) n (%)
- Patients with TEAE: Diarrhoea (in vivo): 4 (1.4%) n (%)
- Patients with TEAE: Gastrointestinal disorders (SOC) (in vivo): 22 (7.5%) n (%)
- Patients with TEAE: Nasopharyngitis (in vivo): 18 (6.1%) n (%)
- Patients with TEAE: Nausea (in vivo): 3 (1.0%) n (%)
- Patients with TEAE: Nervous system disorders (SOC) (in vivo): 29 (9.9%) n (%)
- Patients with TEAE: Upper respiratory tract infection (in vivo): 11 (3.7%) n (%)
- Patients with TEAE: Vomiting (in vivo): 6 (2.0%) n (%)
- Patients with any TEAE (in vivo): 236 (80.3%) n (%)
- Patients with any TEAE leading to permanent treatment discontinuation (in vivo): 3 (1.0%) n (%)
- Patients with any treatment emergent SAE (in vivo): 14 (4.8%) n (%)
- Patients with events adjudicated as allergic reaction by ARAC: All, Any category, Any event (in vivo): 1 (0.3%) n (%)
- Patients with events adjudicated as allergic reaction by ARAC: OTHER ALLERGIC REACTION, Rhinitis allergic (in vivo): 1 (0.3%) n (%)
- Patients with events adjudicated as allergic reaction by ARAC: Possibly Related to IMP, Any event (in vivo): 0 n (%)
- Patients with events adjudicated as allergic reaction by ARAC: URTICARIA (HIVES), Urticaria (in vivo): 0 n (%)
- Patients with treatment emergent SAE: Abdominal pain (in vivo): 0 n (%)
- Patients with treatment emergent SAE: Angina pectoris (in vivo): 1 (0.3%) n (%)
- Patients with treatment emergent SAE: Angina unstable (in vivo): 0 n (%)
- Patients with treatment emergent SAE: Ankle fracture (in vivo): 0 n (%)
- Patients with treatment emergent SAE: Any class (in vivo): 14 (4.8%) n (%)
- Patients with treatment emergent SAE: Atrial fibrillation (in vivo): 0 n (%)
- Patients with treatment emergent SAE: Atrioventricular block complete (in vivo): 1 (0.3%) n (%)
- Patients with treatment emergent SAE: Basal cell carcinoma (in vivo): 1 (0.3%) n (%)
- Patients with treatment emergent SAE: Cardiac disorders (SOC) (in vivo): 5 (1.7%) n (%)
- Patients with treatment emergent SAE: Cardiac failure chronic (in vivo): 1 (0.3%) n (%)
- Patients with treatment emergent SAE: Cardiac failure congestive (in vivo): 1 (0.3%) n (%)
- Patients with treatment emergent SAE: Cellulitis (in vivo): 1 (0.3%) n (%)
- Patients with treatment emergent SAE: Cerebrovascular accident (in vivo): 2 (0.7%) n (%)
- Patients with treatment emergent SAE: Decreased appetite (in vivo): 0 n (%)
- Patients with treatment emergent SAE: Dehydration (in vivo): 0 n (%)
- Patients with treatment emergent SAE: Diabetic bullosis (in vivo): 0 n (%)
- Patients with treatment emergent SAE: Epigastric discomfort (in vivo): 0 n (%)
- Patients with treatment emergent SAE: Erysipelas (in vivo): 0 n (%)
- Patients with treatment emergent SAE: Gastric ulcer haemorrhage (in vivo): 0 n (%)
- Patients with treatment emergent SAE: Gastrointestinal disorders (SOC) (in vivo): 0 n (%)
- Patients with treatment emergent SAE: Hepatic mass (in vivo): 0 n (%)
- Patients with treatment emergent SAE: Hepatobiliary disorders (SOC) (in vivo): 0 n (%)
- Patients with treatment emergent SAE: Hypertension (in vivo): 1 (0.3%) n (%)
- Patients with treatment emergent SAE: Hypoglycaemia (in vivo): 0 n (%)
- Patients with treatment emergent SAE: Hypoglycaemic unconsciousness (in vivo): 0 n (%)
- Patients with treatment emergent SAE: Incisional hernia (in vivo): 0 n (%)
- Patients with treatment emergent SAE: Infections and infestations (SOC) (in vivo): 1 (0.3%) n (%)
- Patients with treatment emergent SAE: Injury, poisoning and procedural complications (SOC) (in vivo): 1 (0.3%) n (%)
- Patients with treatment emergent SAE: Invasive ductal breast carcinoma (in vivo): 1 (0.3%) n (%)
- Patients with treatment emergent SAE: Metabolism and nutrition disorders (SOC) (in vivo): 0 n (%)
- Patients with treatment emergent SAE: Myocardial infarction (in vivo): 0 n (%)
- Patients with treatment emergent SAE: Myocardial ischaemia (in vivo): 1 (0.3%) n (%)
- Patients with treatment emergent SAE: Neoplasm malignant (in vivo): 1 (0.3%) n (%)
- Patients with treatment emergent SAE: Neoplasms benign, malignant and unspecified (incl cysts and polyps) (SOC) (in vivo): 3 (1.0%) n (%)
- Patients with treatment emergent SAE: Nervous system disorders (SOC) (in vivo): 2 (0.7%) n (%)
- Patients with treatment emergent SAE: Neuritis cranial (in vivo): 0 n (%)
- Patients with treatment emergent SAE: Pancreatic carcinoma metastatic (in vivo): 0 n (%)
- Patients with treatment emergent SAE: Penile infection (in vivo): 0 n (%)
- Patients with treatment emergent SAE: Renal and urinary disorders (SOC) (in vivo): 0 n (%)
- Patients with treatment emergent SAE: Renal failure (in vivo): 0 n (%)
- Patients with treatment emergent SAE: Renal failure acute (in vivo): 0 n (%)
- Patients with treatment emergent SAE: Septic arthritis staphylococcal (in vivo): 0 n (%)
- Patients with treatment emergent SAE: Skin and subcutaneous tissue disorders (SOC) (in vivo): 1 (0.3%) n (%)
- Patients with treatment emergent SAE: Skin ulcer haemorrhage (in vivo): 1 (0.3%) n (%)
- Patients with treatment emergent SAE: Uterine cancer (in vivo): 0 n (%)
- Patients with treatment emergent SAE: Vascular disorders (SOC) (in vivo): 1 (0.3%) n (%)
- TEAE leading to permanent treatment discontinuation: Abdominal pain (in vivo): 0 n (%)
- TEAE leading to permanent treatment discontinuation: Any class (in vivo): 3 (1.0%) n (%)
- TEAE leading to permanent treatment discontinuation: Ascites (in vivo): 0 n (%)
- TEAE leading to permanent treatment discontinuation: Blood and lymphatic system disorders (SOC) (in vivo): 0 n (%)
- TEAE leading to permanent treatment discontinuation: Blood glucose decreased (in vivo): 0 n (%)
- TEAE leading to permanent treatment discontinuation: Cardiac disorders (SOC) (in vivo): 1 (0.3%) n (%)
- TEAE leading to permanent treatment discontinuation: Cardiac failure chronic (in vivo): 1 (0.3%) n (%)
- TEAE leading to permanent treatment discontinuation: Cough (in vivo): 0 n (%)
- TEAE leading to permanent treatment discontinuation: Decreased appetite (in vivo): 0 n (%)
- TEAE leading to permanent treatment discontinuation: Dehydration (in vivo): 0 n (%)
- TEAE leading to permanent treatment discontinuation: Diabetic bullosis (in vivo): 0 n (%)
- TEAE leading to permanent treatment discontinuation: Diarrhoea (in vivo): 0 n (%)
- TEAE leading to permanent treatment discontinuation: Dyspepsia (in vivo): 0 n (%)
- TEAE leading to permanent treatment discontinuation: Epigastric discomfort (in vivo): 0 n (%)
- TEAE leading to permanent treatment discontinuation: Gastric ulcer haemorrhage (in vivo): 0 n (%)
- TEAE leading to permanent treatment discontinuation: Gastrointestinal disorders (SOC) (in vivo): 0 n (%)
- TEAE leading to permanent treatment discontinuation: Headache (in vivo): 0 n (%)
- TEAE leading to permanent treatment discontinuation: Hepatic mass (in vivo): 0 n (%)
- TEAE leading to permanent treatment discontinuation: Hepatobiliary disorders (SOC) (in vivo): 0 n (%)
- TEAE leading to permanent treatment discontinuation: Hot flush (in vivo): 0 n (%)
- TEAE leading to permanent treatment discontinuation: Hypoglycaemia (in vivo): 0 n (%)
- TEAE leading to permanent treatment discontinuation: Immune system disorders (SOC) (in vivo): 1 (0.3%) n (%)
- TEAE leading to permanent treatment discontinuation: Invasive ductal breast carcinoma (in vivo): 0 n (%)
- TEAE leading to permanent treatment discontinuation: Investigations (SOC) (in vivo): 0 n (%)
- TEAE leading to permanent treatment discontinuation: Lymphadenopathy (in vivo): 0 n (%)
- TEAE leading to permanent treatment discontinuation: Metabolism and nutrition disorders (SOC) (in vivo): 0 n (%)
- TEAE leading to permanent treatment discontinuation: Metastases to liver (in vivo): 0 n (%)
- TEAE leading to permanent treatment discontinuation: Metastases to peritoneum (in vivo): 0 n (%)
- TEAE leading to permanent treatment discontinuation: Nasal congestion (in vivo): 0 n (%)
- TEAE leading to permanent treatment discontinuation: Nausea (in vivo): 0 n (%)
- TEAE leading to permanent treatment discontinuation: Neoplasms benign, malignant and unspecified (incl cysts and polyps) (SOC) (in vivo): 0 n (%)
- TEAE leading to permanent treatment discontinuation: Nervous system disorders (SOC) (in vivo): 0 n (%)
- TEAE leading to permanent treatment discontinuation: Pancreatic carcinoma metastatic (in vivo): 0 n (%)
- TEAE leading to permanent treatment discontinuation: Renal and urinary disorders (SOC) (in vivo): 0 n (%)
- TEAE leading to permanent treatment discontinuation: Renal failure (in vivo): 0 n (%)
- TEAE leading to permanent treatment discontinuation: Respiratory, thoracic and mediastinal disorders (SOC) (in vivo): 0 n (%)
- TEAE leading to permanent treatment discontinuation: Seasonal allergy (in vivo): 1 (0.3%) n (%)
- TEAE leading to permanent treatment discontinuation: Skin and subcutaneous tissue disorders (SOC) (in vivo): 1 (0.3%) n (%)
- TEAE leading to permanent treatment discontinuation: Skin ulcer haemorrhage (in vivo): 1 (0.3%) n (%)
- TEAE leading to permanent treatment discontinuation: Thrombosis (in vivo): 0 n (%)
- TEAE leading to permanent treatment discontinuation: Tremor (in vivo): 0 n (%)
- TEAE leading to permanent treatment discontinuation: Vascular disorders (SOC) (in vivo): 0 n (%)
- TEAE leading to permanent treatment discontinuation: Vomiting (in vivo): 0 n (%)
- Total number of patients with any event adjudicated as pancreatitis by PSAC (in vivo): 0 n (%)
